Data on three molecules can be found in patent US20160185857A1 (SUPPREMOL, published 2016).

The target in assay [1] is T1, native FcγRIIB, membrane-bound, endogenously expressed on human cells (Raji, Daudi, PBMC) (human, UniProt P31994 43-310).
T1 sequence (looked up): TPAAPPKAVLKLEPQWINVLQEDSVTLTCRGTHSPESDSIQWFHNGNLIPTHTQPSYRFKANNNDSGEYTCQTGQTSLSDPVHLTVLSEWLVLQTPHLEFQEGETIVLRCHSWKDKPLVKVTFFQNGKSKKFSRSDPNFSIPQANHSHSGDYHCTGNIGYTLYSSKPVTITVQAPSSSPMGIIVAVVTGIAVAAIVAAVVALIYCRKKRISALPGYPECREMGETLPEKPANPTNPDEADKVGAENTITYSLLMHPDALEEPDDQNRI
The assay can be described thus: cell-based or functional assay.

Assay [2] addresses T2, recombinant soluble human FcγRIIB (human, UniProt P31994 43-217).
T2 construct: also called sFcγRIIB
T2 sequence: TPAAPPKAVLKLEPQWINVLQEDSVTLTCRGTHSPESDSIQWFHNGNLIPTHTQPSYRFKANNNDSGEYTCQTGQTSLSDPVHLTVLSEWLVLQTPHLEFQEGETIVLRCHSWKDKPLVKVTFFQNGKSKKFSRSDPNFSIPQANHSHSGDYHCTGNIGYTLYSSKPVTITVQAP
The assay can be described thus: ELISA, sFcγRIIB coated on plates, hybridoma supernatant. (An ELISA detects its analyte on a solid surface through an enzyme-linked reagent.)

Assay [3] deals with T3, native FcγRIIA expressed on K562 cells (human, UniProt P12318 34-317).
T3 construct: whole, on cells
T3 sequence (looked up): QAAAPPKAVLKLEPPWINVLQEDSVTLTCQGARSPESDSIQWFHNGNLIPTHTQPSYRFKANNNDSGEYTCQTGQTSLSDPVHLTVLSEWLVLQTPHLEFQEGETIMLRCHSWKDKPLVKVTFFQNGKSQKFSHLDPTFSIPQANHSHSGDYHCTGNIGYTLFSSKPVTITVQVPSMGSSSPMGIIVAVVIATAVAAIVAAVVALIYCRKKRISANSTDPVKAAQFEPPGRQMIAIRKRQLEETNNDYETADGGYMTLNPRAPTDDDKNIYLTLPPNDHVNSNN
The assay can be described thus: flow cytometry on K562 cells. Here is the method:
FIG. 5: Binding of 15 μg/ml antibody (hu8A6_VH+hu8A6_VL and ch8A6_N297A) to native FcγRIIA expressed on K562 cells.
Raji and K562 cells were incubated with increasing concentrations of humanized antibodies and the chimeric antibody as control. Raji cells were used to test binding on FcγRIIB (FIG. 4), K562 cells to analyze unspecific binding to FcγRIIA (FIG. 5). Cell bound antibodies were detected with PE-conjugated secondary antibody.

B1: chGB3_N297A (chimeric GB3, prior art antibody of WO 2005/051999, N297A format) (antibody, V domains shown)
VH: VQLQQSGPELVKPGASVKISCKASGYTFTDYYIYWVKQWPGQGLEWIGWIFPGTGNTYYNENFKDKATLTIDRSSSTAYMLLGSLTSEDSAVYFCYGPFAYWGQ
VL: RIQLTQSPSSLSASLGERVSLTCRASQEISGYLSWLQQKPDGTIKRLIYATSALDSGVPKRFSGSGSGSNYSLTISSLESEDFADYYCLQYANYPYTFGGGTKL
For B1, the “maximum fold phospho-signal of the FcγRIIB ITIM against untreated cells, densitometry of Western blot, Daudi cells” value in assay [1] was found to be 2.8 fold.

B2: monoclonal antibody 8A6 (rat IgG2a) (antibody, V domains shown)
VH: EVQLVESGGDLVQPGRSLRLSCAASGFTFSDYYMAWVRQAPKKGLEWVASISSDGSNTYYGDSVKGRFTISRDNTRSNLYLQMNSLRSEDTATYYCARPGDYWGQGVMVTVSS
VL: NIVMTQSPTSMFISVGDRVTMNCKASQNVGTYVDWFQQKTGQSPTLLIFGASNRYTGVPDRFTGSGSGTDFTLSISNMQAEDLAVYYCLQYNYHPYTFGPGTTLELKR
notes: Rat IgG2a from hybridoma supernatant; also called mAb 8A6; rat antibody 8A6
As for B2, the binding result in assay [2] is on record as “binds”.

B3: ch8A6_N297A (chimeric 8A6, rat variable regions, human IgG1 N297A constant region, human kappa) (antibody)
heavy: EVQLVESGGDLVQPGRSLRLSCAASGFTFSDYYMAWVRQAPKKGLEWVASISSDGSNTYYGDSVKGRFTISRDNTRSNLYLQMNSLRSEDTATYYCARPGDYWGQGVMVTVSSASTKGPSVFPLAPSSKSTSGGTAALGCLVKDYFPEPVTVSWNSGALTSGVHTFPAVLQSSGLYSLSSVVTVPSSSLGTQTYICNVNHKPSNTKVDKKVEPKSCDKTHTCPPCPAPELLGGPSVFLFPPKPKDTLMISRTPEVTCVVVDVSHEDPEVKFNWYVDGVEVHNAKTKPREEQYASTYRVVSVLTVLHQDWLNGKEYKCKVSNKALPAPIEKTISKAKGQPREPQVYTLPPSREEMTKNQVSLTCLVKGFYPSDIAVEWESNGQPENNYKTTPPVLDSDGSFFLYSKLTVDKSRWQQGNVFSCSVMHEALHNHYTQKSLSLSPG
light: NIVMTQSPTSMFISVGDRVTMNCKASQNVGTYVDWFQQKTGQSPTLLIFGASNRYTGVPDRFTGSGSGTDFTLSISNMQAEDLAVYYCLQYNYHPYTFGPGTTLELKRTVAAPSVFIFPPSDEQLKSGTASVVCLLNNFYPREAKVQWKVDNALQSGNSQESVTEQDSKDSTYSLSSTLTLSKADYEKHKVYACEVTHQGLSSPVTKSFNRGEC
notes: also called chimeric 8A6_N297A
B3: in assay [3], the binding result is recorded as “no binding (tested: 15 µg/ml)”.
